Experimental findings from patent publication US20220002432A1 (VIRTUOSO BINCO, published 2022) are described below.

In test [1] the target is T1, ICAM1 on the surface of DU145 cells (human, UniProt P05362 28-532).
T1 construct: whole, on cells
Kind of test: flow cytometry, DU145 cells.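 Note: purified antibodies in dilution series bound to cells for 1 h at 4 °C, detected with a fluorescent secondary antibody (1 h, 4 °C, dark), read by flow cytometry.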
Method: (§1) Harvested cells were centrifuged at 2000 rpm for 5 min and resuspended with 10-15 ml ice-cold culture medium. Cells were counted and then 3×10⁶ cells were resuspended per mL of blocking buffer (PBS plus 2% FBS). 100 μl of the cell suspension was dispensed into each well of a 96-well plate and incubated at room temperature for 10-20 min. […] While incubating, purified antibodies were diluted to the desired dilution with blocking buffer. After a 10-20 minutes incubation, cells were centrifuged for 5 min at 2000 rmp in a refrigerated centrifuge. Blocking buffer was aspirated, and cells were resuspended in 100 μl/well diluted antibodies and incubated for 1 hour at 4° C. The cells were then washed 3 times with PBS plus 2% FBS. After the final wash, the cells were resuspended in 100 μl 1:500 diluted secondary antibody (Invitrogen, Cat #: A10631) and incubated for 1 hour at 4° C. in the dark. The cells were then washed 3 times with 200 μl PBS by centrifuging at 2000 rpm for 5 min. After the last wash, the cells were resuspended in 300 μl cold PBS and analyzed on a FACSVerse™ (BD Biosciences) flow cytometer.

Test [2] has as its target T2, Rhesus-ICAM1 (rhesus, UniProt Q5NKV6 28-480, limits assumed).
T2 sequence (looked up): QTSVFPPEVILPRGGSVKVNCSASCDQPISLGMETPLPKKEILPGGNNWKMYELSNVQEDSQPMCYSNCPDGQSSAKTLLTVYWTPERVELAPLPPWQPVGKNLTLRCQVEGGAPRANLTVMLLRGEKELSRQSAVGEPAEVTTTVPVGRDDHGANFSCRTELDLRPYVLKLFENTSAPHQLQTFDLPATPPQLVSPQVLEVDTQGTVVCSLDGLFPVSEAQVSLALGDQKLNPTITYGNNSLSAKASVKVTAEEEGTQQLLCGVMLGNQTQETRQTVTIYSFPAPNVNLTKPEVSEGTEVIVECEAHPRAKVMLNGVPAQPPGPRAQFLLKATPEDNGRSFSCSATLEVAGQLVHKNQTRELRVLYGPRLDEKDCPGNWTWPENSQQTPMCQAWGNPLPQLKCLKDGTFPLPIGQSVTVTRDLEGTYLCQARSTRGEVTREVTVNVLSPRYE
Kind of test: SPR (Biacore 8K), antibody captured, antigen injected. (SPR reads the build-up and loss of mass on a sensor chip optically.)
Method: (§2) The binding kinetics of the anti-CD38 and anti-ICAM1 antibodies were evaluated on a Biacore 8K instrument (GE Healthcare). Biacore Series S CM5 sensor chips were immobilized with monoclonal mouse anti-human IgG (Fc) antibody (human antibody capture kit from GE Healthcare). Antibodies were captured on each flow cell. Serial 3-fold dilutions of each antigen were injected at a flow rate of 30 μl/min. Each sample was analyzed with 1 min association and 10 min dissociation at room temperature (25° C.). After each injection, the chip was regenerated using 3M MgCl₂. A 1:1 Langmuir model of simultaneous fitting of kₒₙ and koff was used for kinetics analysis.

Test [3] deals with T3, recombinant human ICAM1 (human, UniProt P05362 28-480, limits assumed). Described as above.
T3 sequence (P05362 28-480 limits assumed): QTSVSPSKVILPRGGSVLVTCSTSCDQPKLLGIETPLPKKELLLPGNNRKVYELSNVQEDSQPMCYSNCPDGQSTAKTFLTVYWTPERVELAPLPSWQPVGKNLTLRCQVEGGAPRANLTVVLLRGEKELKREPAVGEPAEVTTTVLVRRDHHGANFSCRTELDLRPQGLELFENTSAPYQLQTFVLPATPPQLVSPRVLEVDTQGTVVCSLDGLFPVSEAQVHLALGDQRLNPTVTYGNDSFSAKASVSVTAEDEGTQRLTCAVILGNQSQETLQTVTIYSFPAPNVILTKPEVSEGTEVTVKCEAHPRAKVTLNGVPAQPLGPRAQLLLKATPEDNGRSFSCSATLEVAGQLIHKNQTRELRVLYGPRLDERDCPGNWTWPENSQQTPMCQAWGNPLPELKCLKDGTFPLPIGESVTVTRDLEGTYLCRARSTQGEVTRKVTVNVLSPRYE
Method: as §2
In test [4] the target is T2, Rhesus-ICAM1. Kind of test: ELISA: plate coated with 1 ug/ml recombinant rhesus ICAM1 ECD, serially diluted antibody, OD450. For orientation: In an ELISA, binding on a coated surface is turned into a signal by an enzyme label.
Method: (§3) The plate was coated overnight at 4° C. with 1 μg/ml recombinant CD38 or ICAM1. After washing 3 times, the plate was blocked with 300 μl 1% BSA in PBST at 37° C. for 1 hour. Serially diluted antibodies were added and incubated at 37° C. for 1 hour. The plate was then washed 4 times with PBST and incubated with 1:5000 diluted 2nd antibody (Sigma, Cat #A0293) at 37° C. for 1 hour.
For test [5], the target named is T3, recombinant human ICAM1. Put plainly: ELISA: plate coated with 1 ug/ml recombinant human ICAM1 ECD, serially diluted antibody, OD450.
Method: as §3
Test [6] has as its target T4, cynomolgus CD38 ECD (cynomolgus, UniProt Q5VAN0 44-301, biotinylated on the AviTag during preparation).
T4 construct: also called Cyno-CD38; Avi-Cyno CD38 ECD
Kind of test: ELISA: plate coated with 1 ug/ml recombinant cynomolgus CD38 ECD, serially diluted antibody, OD450.
Method: as §3

Test [7] has as its target T5, CD38 on the surface of Daudi cells (human, UniProt P28907 1-300).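 Note: purified antibodies incubated with Daudi cells for 1 h at 4 °C, bound antibody detected by fluorescent secondary antibody and read by flow cytometry as MFI.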
T5 construct: whole, on cells
Put plainly: flow cytometry, Daudi cells. (In flow cytometry, cells or beads pass a laser one at a time.)
Method: as §1

The target of test [8] is T6, recombinant human CD38 (human, UniProt P28907 43-300, limits assumed). Kind of test: SPR (Biacore 8K), antibody captured, antigen injected.
Method: as §2
Test [9] concerns the target T4, cynomolgus CD38 ECD. Described as above.
Method: as §2
Test [10] has as its target T6, recombinant human CD38. Put plainly: ELISA: plate coated with 1 ug/ml recombinant human CD38 ECD, serially diluted antibody, OD450.
Method: as §3

T1 sequence (P05362 28-532): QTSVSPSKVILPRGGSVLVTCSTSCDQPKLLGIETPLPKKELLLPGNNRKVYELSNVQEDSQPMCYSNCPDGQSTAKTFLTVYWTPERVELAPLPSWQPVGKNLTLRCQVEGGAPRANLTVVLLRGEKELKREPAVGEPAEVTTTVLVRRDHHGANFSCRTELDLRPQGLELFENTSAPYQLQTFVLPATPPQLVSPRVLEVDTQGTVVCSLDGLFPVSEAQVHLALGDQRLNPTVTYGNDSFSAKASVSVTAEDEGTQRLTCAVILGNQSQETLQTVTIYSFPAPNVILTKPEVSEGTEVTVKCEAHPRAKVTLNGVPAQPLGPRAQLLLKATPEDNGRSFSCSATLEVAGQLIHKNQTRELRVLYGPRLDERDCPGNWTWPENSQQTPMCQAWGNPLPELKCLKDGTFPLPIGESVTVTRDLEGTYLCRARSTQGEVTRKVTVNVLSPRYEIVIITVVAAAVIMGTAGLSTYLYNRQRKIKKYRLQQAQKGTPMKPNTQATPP

B1: 2E3 (antibody, human IgG1, kappa, V domains shown)
VH: QSVEESGGGLVKPGGTLTLTCTVSGFSLSSYAMGWVRQAPGKGLEYIGIIGSSGSTYYASWAKGRFTISKTSTTVDLKITSPTTEDTATYFCVRDPYDSFGDGYRLWGPGTLVTVSS
VL: AYDMTQTPASVEVAVGGTVTIKCQASENIYRYLLWYQQKLGQRPSLLIYDASKLASGVPSRFKGSGSGTEFTLTISGVQSDDAATYYCQQAYSSSNVDNAFGGGTEVVVKR
notes: Rabbit-human chimeric anti-ICAM1: rabbit VH and VL on human IgG1 and kappa constant regions
One may read the EC50 as the concentration at which the effect is half-maximal. The low end stands for higher potency in that assay, the high end for lower potency in that assay. For orientation: Kd means the constant that tells how readily two partners part at equilibrium. By koff is commonly meant a measure of how fast the partners let go of each other. The term kon denotes the rate constant with which the complex forms. As usually defined, the EC50 (read off the curve) is the concentration at which the effect is half-maximal. Consider B1, for which, in test [1], the EC50 stood at 1590 pM and the “Max Binding MFI” value was found to be 3980 MFI. In the test with Rhesus-ICAM1 [2], this molecule displayed a Kd of 1170 pM, a koff of 0.000387 s⁻¹ and a kon of 330000 M⁻¹ s⁻¹. Besides, in the test with recombinant human ICAM1 [3], the Kd stood at 650 pM, the koff stood at 0.000149 s⁻¹ and the association rate constant (kon) amounted to 227000 M⁻¹ s⁻¹. Also, the “EC50 (read off the curve)” value in the test with Rhesus-ICAM1 [4] is about 40 pM. The “EC50 (read off the curve)” value with recombinant human ICAM1 [5] was about 40 pM.

B2: 20B5 (antibody, human IgG1, kappa, V domains shown)
VH: QSLEESGGDLVKPGASLTLTCTASGFSFSSRYWICWVRQAPGKGLEWIACIVAGTTNTYYASWAKGRFTISKTSSTTVTLQMTSLTAADTATYFCAGDPRTGSNVGYFNLWGPGTLVTVSS
VL: AQVLTQTPSPVSAAVGGTVTINCQASQSVYNNNYLAWFQQKPGQPPKLLIYSASTLASGVPSRFKGSGSGTQFTLTISEVQSDDAATYYCQAYYSGGIYAFGGGTEVVVKR
notes: Rabbit-human chimeric anti-CD38: rabbit VH and VL on human IgG1 and kappa constant regions
Take B2: the “EC50 (read off the curve)” value in the test with cynomolgus CD38 ECD [6] is about 60 pM. Moreover, in test [7], the EC50 came out at 373 pM and the “Max Binding MFI” value is 816 MFI. Further, in the test with recombinant human CD38 [8], the Kd came out at 98600 pM, the koff was found to be 0.0341 s⁻¹ and the kon amounted to 346000 M⁻¹ s⁻¹. In the test with cynomolgus CD38 ECD [9], this molecule yielded a Kd of 54800 pM, a koff of 0.0322 s⁻¹ and a kon of 588000 M⁻¹ s⁻¹.

B3: 26D4 (antibody, human IgG1, kappa, V domains shown)
VH: QEQLEESGGDLVKPEGSLTLTCTASGFSFSNDAICWVRQAPGKGLEWIACIYAGSGNTYYASWAKGRFSISKTSSTTVTLQMTSLTVADTATYFCASADTIDYFNLWGPGTLVTVSS
VL: AQVLTQTPSPVSAAVGGTVTINCQASQSVYNNNYLAWYQQKPGQPPKLLIYRASNLASGVPSRFSASGSGTQFTLTISEVQSDDAATYYCQAYYRDPTTAFGGGTEVVVKR
notes: as for B2
As for B3, in the test with cynomolgus CD38 ECD [6], the “EC50 (read off the curve)” value was about 60 pM. Besides, in [7], the response was half-maximal at 4060 pM (EC50) and the “Max Binding MFI” value is 577 MFI. In the test with recombinant human CD38 [8], the dissociation constant Kd amounted to 510000 pM, the koff was 0.102 s⁻¹ and the kon turned out to be 200000 M⁻¹ s⁻¹. Besides, in the test with cynomolgus CD38 ECD [9], the affinity, expressed as Kd, was 43800 pM; the koff amounted to 0.0313 s⁻¹; the kon worked out at 715000 M⁻¹ s⁻¹.

B4: 23D1 (antibody, human IgG1, kappa, V domains shown)
VH: QELVESGGGLFQPGGSLALTCKASGFSLSNIYVMCWVRQAPGKGLEWIACIGTGSGDTDYATWAKGRFTISKTSSTTVTLQMTSLTAADTATYFCARDPGAGTWNLWGPGTLVTVSS
VL: DIVMTQTPSSVEAAVGGTVTIKCQASQTIGSRLAWYQQKPGQPPKLLIYSASTLASGVSSRFKGSGSGTQFTLTISDLDSADAATYYCQSYYYTSTSYPNAFGGGTEVVVKR
notes: as for B2
Turning to B4, the “EC50 (read off the curve)” value with recombinant human CD38 [10] is about 60 pM. Moreover, the “EC50 (read off the curve)” value with cynomolgus CD38 ECD [6] is about 60 pM. Further, in test [7], the response was half-maximal at 704 pM (EC50) and the “Max Binding MFI” value is 1000 MFI. Besides, in the test with recombinant human CD38 [8], the Kd amounted to 670 pM, the koff came out at 0.000125 s⁻¹ and the kon is 187000 M⁻¹ s⁻¹. Further, in the test with cynomolgus CD38 ECD [9], binding was put at a Kd of 550 pM, the koff is 0.000294 s⁻¹ and the kon was found to be 536000 M⁻¹ s⁻¹.

B5: 21G2 (antibody, human IgG1, kappa, V domains shown)
VH: QSVEESGGRLVTPGTPLTLTCTVSGFSLSNYGVSWVRQAPGKGLEWIGYILTSGGTYYANWAQGRFTISKTSTTVDLKITSPTTEDTATYFCGRPKDSDSSAFVSLWGPGTLVTVSS
VL: DVVMTQTPASVSEPVGGTVTINCQASESIYSNLAWYQQKPGQPPKLLIYKASTLASGVSSRFKGSGSGTEFTLTISDLESADAATYYCQANHMIVIYGNGFGGGTEVVVKR
notes: as for B2
In the case of B5, the “EC50 (read off the curve)” value with recombinant human CD38 [10] was about 60 pM. Also, the “EC50 (read off the curve)” value with cynomolgus CD38 ECD [6] was about 60 pM. In test [7], the EC50 is 1130 pM and the “Max Binding MFI” value came to 2150 MFI. Further, in the test with recombinant human CD38 [8], the Kd is 190 pM, the koff was determined as 3.1e-05 s⁻¹ and the kon is 167000 M⁻¹ s⁻¹. In the test with cynomolgus CD38 ECD [9], this molecule registered a Kd of 1710 pM, a koff of 0.000432 s⁻¹ and a kon of 253000 M⁻¹ s⁻¹.

B6: 21H9 (antibody, human IgG1, kappa, V domains shown)
VH: QSLEESGGDLVKPGASLTLTCTASGFSATTYYYYMCWVRQAPGKGLEWIACTYTGDGATYYATWAKGRFTISKTSSTTVTLQMTSLTAADTATYFCARSADNSIYYGYFNLWGPGTLVTVSS
VL: AFELTQTPFSVSEPVGGTVTINCQASENIYSSLAWYQQKPGQPPKLLIYRASTLASGVPSRFSGSGSGTEFTLTISGVQSDDAATYYCQTYYGSTSTGFTFGGGTEVVVKR
notes: as for B2
In the case of B6, the “EC50 (read off the curve)” value with recombinant human CD38 [10] was about 60 pM. Besides, the “EC50 (read off the curve)” value with cynomolgus CD38 ECD [6] is about 60 pM. In test [7], the EC50 is 1200 pM and the “Max Binding MFI” value turned out to be 1930 MFI. For the same molecule, in the test with recombinant human CD38 [8], the Kd is 4 pM, the koff is 5.99e-07 s⁻¹ and the kon was 166000 M⁻¹ s⁻¹. In addition, in the test with cynomolgus CD38 ECD [9], binding was put at a Kd of 760 pM, the koff worked out at 0.00014 s⁻¹ and the kon was determined as 184000 M⁻¹ s⁻¹.

B7: 23B3 (antibody, human IgG1, kappa, V domains shown)
VH: QSVEESGGRLVTPGTPLTLTCTVSGFSLSNYDMTWVRQAPGRGLEWIGVISSGDNTNYARWAKGRFTISKTSSTTVDLKITSPTTEDTATYFCARILYNKGRYYFTFWGPGTLVTVSS
VL: AQVLTQTPSSVSAAVGGTVTINCQSSQSIANSDELAWYQQKPGQPPKLLIYDASTLAPGVPSRFSGSGSGTQFTLTISGVQSDDAATYYCQGTVYDSGWYAAFGGGTEVVVKR
notes: as for B2
For B7, the “EC50 (read off the curve)” value in the test with recombinant human CD38 [10] was about 60 pM. Moreover, the “EC50 (read off the curve)” value with cynomolgus CD38 ECD [6] is about 60 pM. In test [7], a half-maximal effect (EC50) was put at 325 pM and the “Max Binding MFI” value worked out at 1330 MFI. Moreover, in the test with recombinant human CD38 [8], the Kd amounted to 0.029 pM, the koff came out at 2.77e-08 s⁻¹ and the kon came to 970000 M⁻¹ s⁻¹. Also, in the test with cynomolgus CD38 ECD [9], binding was put at a Kd of 40 pM, the off-rate constant (koff) was determined as 9.46e-05 s⁻¹ and the kon stood at 2.43e+06 M⁻¹ s⁻¹.

B8: 1E2 (antibody, human IgG1, kappa, V domains shown)
VH: QSVEESGGRLVTPGTPLTLTCTVSGIDLNSYAMGWVRQAPGKGLKYIGIMTSGGNIYYANWAKGRFTISKTSTTVDLRITSPTTEDTATYFCAREREFYGGGTSGSRLDLWGQGTLVTVSS
VL: AYDMTQTPASVEAAVGGTVTIKCQASQSIYNFLNWYQQKPGQPPKLLIYYASTLAFGVPSRFKGSGSGTEYTLTISGVESADAATYYCQQGWNSGILDNSFGGGTEVVVKR
notes: as for B2
In the case of B8, in the test with recombinant human CD38 [10], the “EC50 (read off the curve)” value is about 60 pM. Moreover, in the test with cynomolgus CD38 ECD [6], the “EC50 (read off the curve)” value was about 60 pM. Moreover, in test [7], a half-maximal response (EC50) required 497 pM and the “Max Binding MFI” value turned out to be 2130 MFI. Moreover, in the test with recombinant human CD38 [8], the Kd is 1620 pM, the koff is 0.000388 s⁻¹ and the kon worked out at 240000 M⁻¹ s⁻¹. Moreover, in the test with cynomolgus CD38 ECD [9], the Kd was determined as 68100 pM, the koff was found to be 0.0124 s⁻¹ and the kon was 182000 M⁻¹ s⁻¹.

B9: 22H6 (antibody, human IgG1, kappa, V domains shown)
VH: QSVEESGGRLVTPGTPLTLTCTVSGFSLSNNAISWVRQAPGKGLQWIGSIYGSGNTYYATWAKGRFTVSKTSTTVDLKINSPTTEDTATYFCAREGAGSSWGFNLWGPGTLVTVSS
VL: AQVLTQTASSVSAAVGGTVTISCQSSESVYKNNYLSWYQQKPGQPLKCLIYSASTLASGVPSRFKGSGSGTQFTLTISDLESDDAATYYCAGGYSGNINGFGGGTEVVVKR
notes: as for B2
With B9, the “EC50 (read off the curve)” value with cynomolgus CD38 ECD [6] was about 60 pM. Further, in [7], the EC50 was determined as 1320 pM and the “Max Binding MFI” value turned out to be 782 MFI. Moreover, in the test with recombinant human CD38 [8], the Kd was 65400 pM, the koff amounted to 0.021 s⁻¹ and the kon was determined as 321000 M⁻¹ s⁻¹. In the test with cynomolgus CD38 ECD [9], this molecule displayed a Kd of 62400 pM, a koff of 0.0352 s⁻¹ and a kon of 564000 M⁻¹ s⁻¹.
